Legend:
[1] = target: P60_tth (TTHA0266), NlpC/P60 D,L-endopeptidase from Thermus thermophilus, full-length protein (Thermus thermophilus) (UniProt Q5SLM7); assay: SEC; Superdex 75 10/300 GL, 50 mM Tris-HCl pH 8, 200 mM NaCl, 5 mM beta-mercaptoethanol, 0.5 ml/min; apparent molecular weight from a calibration curve
[2] = target: P60_tth (TTHA0266), NlpC/P60 D,L-endopeptidase from Thermus thermophilus, full-length protein (Thermus thermophilus) (UniProt Q5SLM7); assay: SAXS; small-angle X-ray scattering in solution, ESRF beamline BM-29; molecular weight estimated from the scattering; models evaluated with CRYSOL and CORAL
[3] = target: P60_cata (catalytic domain of P60_tth alone) (Thermus thermophilus); assay: SEC; Superdex 75 10/300 GL, 50 mM Tris-HCl pH 8, 200 mM NaCl, 5 mM beta-mercaptoethanol, 0.5 ml/min; apparent molecular weight from a calibration curve
[4] = target: P60_cata (catalytic domain of P60_tth alone) (Thermus thermophilus); assay: SAXS; small-angle X-ray scattering in solution, ESRF beamline BM-29; molecular weight estimated from the scattering; models evaluated with CRYSOL and CORAL
[5] = target: T1, P60_tth (TTHA0266), full-length (Thermus thermophilus, UniProt Q5SLM7); assay: microscale thermophoresis; assay type: binding; conditions: labelled protein (200 nM); 50 mM phosphate pH 7.5, 0.1% Tween 20; incubated 1 h at 60°C, measured at room temperature; read-out: apparent Kd
T1 construct: full-length P60_tth (LysM1, LysM2, NlpC/P60 catalytic domain); Trx/His/S-tag fusion cut by TEV, expressed in E. coli BL21 Rosetta 2 (DE3)
T1 sequence (Q5SLM7 15-258): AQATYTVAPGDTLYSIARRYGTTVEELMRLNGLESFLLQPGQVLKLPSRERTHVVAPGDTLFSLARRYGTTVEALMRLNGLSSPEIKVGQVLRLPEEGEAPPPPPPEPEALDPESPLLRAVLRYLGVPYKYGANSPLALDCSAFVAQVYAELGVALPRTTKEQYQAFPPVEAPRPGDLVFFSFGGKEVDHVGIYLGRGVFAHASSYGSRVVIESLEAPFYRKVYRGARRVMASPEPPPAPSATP

[6] = target: T2, P60_tth (TTHA0266), full-length (Thermus thermophilus, UniProt Q5SLM7, F76A/R80A/E99A); assay: microscale thermophoresis; assay type: binding; conditions: labelled protein (200 nM); 50 mM phosphate pH 7.5, 0.1% Tween 20; incubated 1 h at 60°C, measured at room temperature; P60_tth_LysM2_mut
T2 construct: full-length P60_tth (LysM1, LysM2, NlpC/P60 catalytic domain); Trx/His/S-tag fusion cut by TEV, expressed in E. coli BL21 Rosetta 2 (DE3)
T2 sequence (Q5SLM7 entry or part of it F76A/R80A/E99A): as the sequence (Q5SLM7 15-258) above, with F62A, R66A, E85A counted along it

[7] = target: T3, P60_tth (TTHA0266), full-length (Thermus thermophilus, UniProt Q5SLM7, Y28A/R32A/F50A/Q53A); assay: microscale thermophoresis; assay type: binding; conditions: labelled protein (200 nM); 50 mM phosphate pH 7.5, 0.1% Tween 20; incubated 1 h at 60°C, measured at room temperature; P60_tth_LysM1_mut (Nus/His/S-tag fusion, tags cleaved)
T3 construct: full-length P60_tth (LysM1, LysM2, NlpC/P60 catalytic domain); Trx/His/S-tag fusion cut by TEV, expressed in E. coli BL21 Rosetta 2 (DE3)
T3 sequence (Q5SLM7 entry or part of it Y28A/R32A/F50A/Q53A): as the sequence (Q5SLM7 15-258) above, with Y14A, R18A, F36A, Q39A counted along it

P60_2LysM = target: T4, P60_2LysM (Thermus thermophilus, UniProt Q5SLM7); assay: X-ray co-crystal structure, […] Å; assay type: binding; conditions: co-crystallized at protein:sugar 1:2; LysM1 and LysM2 of symmetry-related monomers share one ligand; pH 6.5
T4 construct: gene TTHA0266; LysM1-LysM2 only, no catalytic domain; Trx/His/S-tag fusion cut by TEV, expressed in E. coli
T4 sequence (Q5SLM7 15-114 limits assumed): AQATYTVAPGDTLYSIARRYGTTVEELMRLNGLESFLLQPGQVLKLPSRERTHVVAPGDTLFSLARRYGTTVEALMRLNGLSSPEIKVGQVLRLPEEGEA

[8] = target: the molecule itself; assay: SEC; Superdex 75 10/300 GL, 50 mM Tris-HCl pH 8, 200 mM NaCl, 5 mM beta-mercaptoethanol, 0.5 ml/min; apparent molecular weight from a calibration curve

Molecule: P60_tth (TTHA0266), NlpC/P60 D,L-endopeptidase from Thermus thermophilus, full-length protein (from UniProt Q5SLM7 1-258) (enzyme)
- stoichiometry N [1]: 2
- stoichiometry N [2]: 2

Molecule: P60_cata (catalytic domain of P60_tth alone) (domain or fragment)
- stoichiometry N [3]: 2
- stoichiometry N [4]: 2

Molecule: CC(=O)N[C@H]1[C@H](O[C@H]2[C@H](O)[C@@H](NC(C)=O)[C@H](O[C@H]3[C@H](O)[C@@H](NC(C)=O)C(O)O[C@@H]3CO)O[C@@H]2CO)O[C@H](CO)[C@@H](O[C@@H]2O[C@H](CO)[C@@H](O[C@@H]3O[C@H](CO)[C@@H](O[C@@H]4O[C@H](CO)[C@@H](O)[C@H](O)[C@H]4NC(C)=O)[C@H](O)[C@H]3NC(C)=O)[C@H](O)[C@H]2NC(C)=O)[C@@H]1O (stereo partly drawn) [chitohexaose]
- Kd [5]: 90 ± 19.8 µM
- Kd [6]: 292 ± 86.5 µM
- Kd [7]: 321 ± 112 µM
- X-ray co-crystal structure, 1.75 Å (P60_2LysM): solved the crystal structure of P60_2LysM bound to chitohexaose

B1: P60_1LysM (P60_tth with the N-terminal LysM domain deleted) (domain or fragment, Thermus thermophilus, UniProt Q5SLM7 62-258, looked up)
chain: SRERTHVVAPGDTLFSLARRYGTTVEALMRLNGLSSPEIKVGQVLRLPEEGEAPPPPPPEPEALDPESPLLRAVLRYLGVPYKYGANSPLALDCSAFVAQVYAELGVALPRTTKEQYQAFPPVEAPRPGDLVFFSFGGKEVDHVGIYLGRGVFAHASSYGSRVVIESLEAPFYRKVYRGARRVMASPEPPPAPSATP
notes: TTHA0266 (P60_tth) of Thermus thermophilus without the N-terminal LysM domain (LysM2, linker and catalytic domain); predicted molecular weight 21.4 kDa; with Val69 and Thr74 of the text this puts the first residue at Ser62; The start was worked out from the translated primer and the residue numbers printed for LysM2; the C-terminus is as in the full-length construct; source: E. coli BL21 Rosetta …
- stoichiometry N [8]: 2

Source: paper PMC4356369, “An intermolecular binding mechanism involving multiple LysM domains mediates carbohydrate recognition by an endopeptidase” (Acta Crystallographica Section D: Biological Crystallography, 2015)
